Reference: publication PMC9621426, “Characterization of a novel pyruvate kinase from Trichinella spiralis and its participation in sugar metabolism, larval molting and development” (PLOS Neglected Tropical Diseases, 2022)

What was measured:
[1] = substrate: C=C(OP(=O)(O)O)C(=O)O; test: purified protein; format: biochemical, Trichinella spiralis; settings: co-substrate ADP, Tris-HCl pH 8.0, 37°C
[2] = substrate: Nc1ncnc2c1ncn2[C@@H]1O[C@H](COP(=O)(O)OP(=O)(O)O)[C@@H](O)[C@H]1O; test: purified protein; format: biochemical, Trichinella spiralis; settings: co-substrate PEP, Tris-HCl pH 8.0, 37°C

B1: rTsPKM (recombinant T. spiralis pyruvate kinase M) (Trichinella spiralis) (protein)
chain: MSEKQSQKSRKLAKVAAIPAKTTLEHLCRLDTDHSVEKLVSKTGLICTIGPASCSVETLTKMIQAGMTIARLNFSHGSHDYHAQTVANIRKAVDSLAASGNGKVVAIALDTKGPEIRTGYLAVGSNEEVVVEANSAVRVTVDSGMKFRCTESLIYVDYENMPKVVSKGSKIYIDDGLISLLVNEVADNHLDCVVEHGGKLGSCKGVNLPDCEVDLPAVSEKDAQDLQFAVKHQCDMVFASFVRSAEAVRQIRQTLGVEGRGIKIVAKIENRQGIANVDSIIEEADGVMIARGDLGIEIPAEQVFVAQKAIIAKCRLAGKPAICATQMLESMVDKARPTRAEITDVANAVLDGADCVMLSGETAKGRHPVQAVRTMHQICCQAESVFFQKHFFDELQAMLPRPMNAMDTIAFAVTTAAANCNASAIILLTNTGASAVALSKCRPSSMIISVVKKEQTARYLRLYSGILPCVYDSKNSSSSSPNAVVDWVTSVDQRINYAILFGKKERIIHDGDNVIVVNGWREGPGHTNTIRIFAVEPLIPRP
Question: Which results are given for B1?
Answer: Km [1]: 1510 µM; Km [2]: 3330 µM
